Measurements from article PMC6323126, “Architecture, substructures, and dynamic assembly of STRIPAK complexes in Hippo signaling” (Cell Discovery, 2019).

Key:
[1] = target: T1, SIKE1 CC1 (residues 5–65) (human, UniProt Q9BRV8 5-65); assay: crystal structure; SIKE1 CC1-SLMAP CC1 complex reconstituted 1:1 and gel-filtered, 2.3 Å; 0.1 M sodium citrate (pH 5.5), 15% PEG 6000, 16 °C; settings: both partners purified
T1 construct: SIKE1, human, residues 5-65; Homodimer within the 2:2 crystal complex; also called residues 5–65 of SIKE1; source: E. coli BL21 (DE3) CodonPlus, purified
T1 sequence (looked up): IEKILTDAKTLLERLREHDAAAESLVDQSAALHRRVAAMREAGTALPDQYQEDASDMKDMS

[2] = target: the molecule itself; assay: as above
[3] = target: T1, SIKE1 CC1 (residues 5–65); assay: not stated; Kd of the minimal regions, Supplementary Fig. S7c; method not given; settings: both partners purified
[4] = target: T2, MST2 kinase domain (residues 1–308) (human, UniProt Q13188 1-308); assay: pull-down; GST pulldown: GST-tagged protein, partner and glutathione Sepharose mixed at 4 °C for 1 h in 20 mM HEPES (pH 7.5), 100 mM NaCl; eluted with 20 mM reduced glutathione; SDS-PAGE, Coomassie staining; settings: both partners purified
T2 construct: also called kinase domain of MST2; source: E. coli BL21 (DE3) CodonPlus, purified
T2 sequence (looked up): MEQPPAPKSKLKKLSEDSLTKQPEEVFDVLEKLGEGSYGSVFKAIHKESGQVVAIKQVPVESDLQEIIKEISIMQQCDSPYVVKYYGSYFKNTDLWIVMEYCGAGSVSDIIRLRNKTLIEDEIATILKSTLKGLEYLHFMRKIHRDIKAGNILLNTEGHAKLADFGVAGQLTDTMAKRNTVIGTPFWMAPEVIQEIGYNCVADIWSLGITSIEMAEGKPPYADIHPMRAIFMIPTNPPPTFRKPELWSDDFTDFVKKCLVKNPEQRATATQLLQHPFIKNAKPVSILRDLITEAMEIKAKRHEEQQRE

[5] = target: T3, MST4 kinase domain (residues 1–300) (human, UniProt Q9P289 1-300); assay: pull-down; pulldown with purified recombinant proteins shown in supplementary figures; whether GST or MBP and who carried the tag not told; settings: both partners purified
T3 construct: MST4 (STK26), human, residues 1-300; also called N-terminal kinase domain of MST4; source: E. coli BL21 (DE3) CodonPlus, purified
T3 sequence (Q9P289 1-300): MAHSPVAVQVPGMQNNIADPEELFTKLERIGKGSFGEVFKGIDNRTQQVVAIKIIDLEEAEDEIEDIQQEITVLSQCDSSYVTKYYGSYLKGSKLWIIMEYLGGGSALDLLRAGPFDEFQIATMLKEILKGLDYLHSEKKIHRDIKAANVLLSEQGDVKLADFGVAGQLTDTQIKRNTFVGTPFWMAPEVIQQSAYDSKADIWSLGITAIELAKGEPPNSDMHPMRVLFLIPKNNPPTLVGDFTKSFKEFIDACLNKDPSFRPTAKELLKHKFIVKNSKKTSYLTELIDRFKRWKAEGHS

MST4 (recombinant) = target: T4, MST4 (recombinant) (human, UniProt Q9P289 1-416); assay: as above; settings: both partners purified
T4 construct: MST4 (STK26), human; also called STK26; source: E. coli BL21 (DE3) CodonPlus, purified
T4 sequence (Q9P289 whole entry): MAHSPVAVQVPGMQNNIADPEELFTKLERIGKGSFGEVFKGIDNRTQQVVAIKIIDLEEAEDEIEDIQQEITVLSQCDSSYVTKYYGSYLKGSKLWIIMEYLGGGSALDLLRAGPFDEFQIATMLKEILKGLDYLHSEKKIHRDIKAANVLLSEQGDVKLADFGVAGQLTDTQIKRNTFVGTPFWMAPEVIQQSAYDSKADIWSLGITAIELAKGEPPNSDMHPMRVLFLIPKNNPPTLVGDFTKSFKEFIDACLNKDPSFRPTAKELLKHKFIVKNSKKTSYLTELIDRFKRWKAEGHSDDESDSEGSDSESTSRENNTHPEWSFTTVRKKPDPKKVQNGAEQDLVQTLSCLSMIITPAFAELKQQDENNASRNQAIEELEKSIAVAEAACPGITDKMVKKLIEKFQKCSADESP

[6] = target: T5, MST2 (recombinant, wildtype) (human, UniProt Q13188 1-491); assay: as above; settings: both partners purified
T5 construct: MST2 (STK3), human; also called STK3; Hippo kinase MST2; source: E. coli BL21 (DE3) CodonPlus, purified
T5 sequence (looked up): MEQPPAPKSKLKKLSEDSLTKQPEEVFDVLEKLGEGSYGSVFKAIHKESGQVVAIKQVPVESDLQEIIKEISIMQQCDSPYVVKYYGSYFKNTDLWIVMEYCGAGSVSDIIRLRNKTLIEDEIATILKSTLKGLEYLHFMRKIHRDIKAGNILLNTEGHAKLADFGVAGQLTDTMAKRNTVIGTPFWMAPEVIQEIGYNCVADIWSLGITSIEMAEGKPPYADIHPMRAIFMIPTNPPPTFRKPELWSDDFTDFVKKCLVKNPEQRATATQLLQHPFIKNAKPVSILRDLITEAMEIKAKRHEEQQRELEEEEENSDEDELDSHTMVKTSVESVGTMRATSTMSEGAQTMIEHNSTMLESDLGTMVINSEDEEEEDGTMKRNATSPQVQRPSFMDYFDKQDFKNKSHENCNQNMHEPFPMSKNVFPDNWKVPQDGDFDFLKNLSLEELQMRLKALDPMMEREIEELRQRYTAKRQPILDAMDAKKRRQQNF

B1: SLMAP CC1 (residues 167–226) (domain or fragment, human, UniProt Q14BN4 167-226, looked up)
chain: QLSQYLQEALHREQMLEQKLATLQRLLAITQEASDTSWQALIDEDRLLSRLEVMGNQLQA
notes: Homodimer within the 2:2 crystal complex; source: E. coli BL21 (DE3) CodonPlus, purified
In the case of B1, the “stoichiometry N” value [1] is reported as 1 SIKE1 CC1 per SLMAP CC1 (2:2), the “stoichiometry N” value [2] is reported as 2 and the Kd [3] is reported as 6.9 µM.

B2: FHA domain (residues 5–135) of SLMAP (domain or fragment, human, UniProt Q14BN4 5-135, looked up)
chain: LAIFTCRPNSHPFQERHVYLDEPIKIGRSVARCRPAQNNATFDCKVLSRNHALVWFDHKTGKFYLQDTKSSNGTFINSQRLSRGSEESPPCEILSGDIIQFGVDVTENTRKVTHGCIVSTIKLFLPDGMEA
notes: also called SLMAP (FHA); SLMAP FHA domain; source: E. coli BL21 (DE3) CodonPlus, purified
B2: binds [4]; binds [5]; binds (MST4 (recombinant)). B2: binds [6].
